Experimental data: PMC3948114

Target: HLA-B*27:05-KK10 tetramer
Experiment: tetramer staining of transfected HEK293 cells
Details: 0.2 μg tetramer; parent: est. 100; read off a plot

| Substance | percent of parent |
| --- | --- |
| FLAG-tagged 3DL1*001 (from UniProt P43629) A167G | 76 % of ·001 |
| FLAG-tagged 3DL1*001 (from UniProt P43629) D230A | 30 % of ·001 |
| FLAG-tagged 3DL1*001 (from UniProt P43629) E282A | 22 % of ·001 |
| FLAG-tagged 3DL1*001 (from UniProt P43629) E282Q | 44 % of ·001 |
| FLAG-tagged 3DL1*001 (from UniProt P43629) L166A | 180 % of ·001 |
| FLAG-tagged 3DL1*001 (from UniProt P43629) L166V | 20 % of ·001 |
| FLAG-tagged 3DL1*001 (from UniProt P43629) M165A | 52 % of ·001 |
| FLAG-tagged 3DL1*001 (from UniProt P43629) P199A | 10 % of ·001 |
| FLAG-tagged 3DL1*001 (from UniProt P43629) Y200A | 8 % of ·001 |
| FLAG-tagged 3DL1*001 (from UniProt P43629) Y200F | 36 % of ·001 |
